Where a chain is given by its changes, count along the chain named.
B1: 33E7E12 (antibody, V domains shown)
VH: EVKLEESGGGLVQPGGSMKLSCFVSGFTFSNSWMNWVRQSPEKGLEWVAQIQLKSDNYATRYVESVRGRFIISRDDSKSSVSLQMNNLRTEDTGIYYCSSGTDYWGQGTTLTVSS
VL: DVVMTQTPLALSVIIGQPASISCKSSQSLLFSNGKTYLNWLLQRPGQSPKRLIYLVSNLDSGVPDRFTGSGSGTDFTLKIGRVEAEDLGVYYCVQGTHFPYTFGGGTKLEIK
B2: 100F2E3 (antibody, V domains shown)
VH: QVQLQQPGAELVRPGSSVKLSCKTSDYTFTSYWMDWVKQRPGQGLEWIGNIYPSDSKTHSNQKFRDKATLTVDKSSSTAYMQLNSLTSEDSAVYYCARRGGYYGYAMDYWGQGTSVTVSS
VL: DIVMTQSPSSLSVSAGEKVTMSCKSSQSLLNSGNQDNYLAWYQQKPGQPPKLLIYGASIRESGVPDRFTGSGSGTDFTLTISSVQAEDLAVYYCQNDHSYPYTFGGGTKLEIK
B3: 101H9G9A2 (antibody, V domains shown)
VH: B2 VH with Q5L, T24A, S60Y, R65K, G104A
VL: B2 VL with S22R, I54L, S58R, T69I, L110V
B4: 58F10-1F6 (antibody, V domains shown)
VH: EVQLRQSGPELVKPGAAVKISCKASGYSFTGYHMNWVKQSPEKSLEWIGEINPITSGITYNQIFKAKATLTVDKSSSTAYLQLKSLTSEDSAVYYCTRRDYGTSLDYWGQGTTLTVSS
VL: DIQMTQITSSLSASLGDRVTITCRASQDISNYLNWYQQKPDGTVKLLIYYTSRLLSGVPSRFSGSGSGTDYSLTISNLEQEDIATYFCQQDHTLPRTFGGGTKLEIR
B5: 71A4F12 (antibody, V domains shown)
VH: EVQLQQSGPELVKPGASVKIPCKASGYTFTAYNMDWVKQSHGMSLEWIGDINPNNGDTVYNQNFKGKATLTVDKSSSTAYMELRSLTSEDTAVYYCARRGSYYYGSSHYALDFWGQGTSVSVSS
VL: B4 VL with D17N, T22S, S30R, H92N, T93S, K103R
B6: 56A7E3 (antibody, V domains shown)
VH: B5 VH with N54I, D57G, V59I, K65E, M81L
VL: B4 VL
B7: 81A1F8 (antibody, V domains shown)
VH: EVQLQQSGPELVKPGASVKISCKATGYLFTGYYMNWVKQSPEKSLEWIGEINPNTGDTNNNQKFKAKATMTVDRSSSTAYMQLKRLTSEDSAVYYCVRRDYGTSLDYWGQGTTLTVSS
VL: DVQITQSPSYLAASPGETITINCRASKSINKYLAWYQEKPGKTNKLLIHSGSTLQSGIPSRFSGSRSGTDFTLTISNLEPEDFAMYYCQQHNEYPITFGAGTKLELK
B8: 110D4G4 (antibody, V domains shown)
VH: EVQLQQSGPGLVKPGASVKISCRASGYLFTGYYMNWVKQSPEKSLEWIGEINPNTGDPRYDQKFKAKATLTVDRSSSTAYMHLKSLTSEDSAVYFCARRDYGTSLDYWGQGTTLTVTS
VL: B7 VL with N30S, H49Y, R66G, T69S, N77S, I96L
B9: 73H5-1G2 (antibody, V domains shown)
VH: QVQLKQSGPGLVQPSQSLSITCTVSGFSLTNYGVHWIRQSPGKGLEWLGVIWRGGSTDYNAAFMSRLSITKDNSKSQVFFQMNSLQAADTAIYYCANNYGYDCFAYWGQGTLVTVSA
VL: B7 VL with N30I, H49Y, R66G, S76T, N77S, I96L, K103R
B10: ch81A1F8-hIgG4 (antibody, V domains shown)
VH: B7 VH
VL: B7 VL
B11: 81A1F8-VH-11/VL-11 (antibody, V domains shown)
VH: QVQLVQSGAEVKKPGASVKVSCKASGYLFTGYYMNWVRQAPGQGLEWMGEINPNTGDTNNNQKFKARVTMTVDRSISTAYMELSRLRSDDTAVYYCVRRDYGTSLDYWGQGTLVTVSS
VL: DVQITQSPSSLSASVGDRVTITCRASKSINKYLAWYQQKPGKAPKLLIHSGSTLQSGVPSRFSGSRSGTDFTLTISSLQPEDFATYYCQQHNEYPITFGQGTKLEIK
B12: 81A1F8-VH-21/VL-11 (antibody, V domains shown)
VH: B11 VH with I76T, R85S, D89E
VL: B11 VL
B13: 81A1F8-VH-11/VL-41 (antibody, V domains shown)
VH: B11 VH
VL: B11 VL with S10T, D70E, E81D
B14: 81A1F8-VH-21/VL-31 (antibody, V domains shown)
VH: B11 VH with I76T, R85S, D89E
VL: B11 VL with A43V
B15: 81A1F8-VH-21/VL-21 (antibody, V domains shown)
VH: B11 VH with I76T, R85S, D89E
VL: B11 VL with S10F, D70E
B16: 81A1F8-VH-31/VL-41 (antibody, V domains shown)
VH: B11 VH with G44R, M70I, I76A, R85S, D89E
VL: B11 VL with S10T, D70E, E81D
B17: 81A1F8-VH-11/VL-21 (antibody, V domains shown)
VH: B11 VH
VL: B11 VL with S10F, D70E
B18: 81A1F8-VH-31/VL-11 (antibody, V domains shown)
VH: B11 VH with G44R, M70I, I76A, R85S, D89E
VL: B11 VL
B19: 81A1F8-VH-31/VL-31 (antibody, V domains shown)
VH: B11 VH with G44R, M70I, I76A, R85S, D89E
VL: B11 VL with A43V
B20: 81A1F8-VH-21/VL-41 (antibody, V domains shown)
VH: B11 VH with I76T, R85S, D89E
VL: B11 VL with S10T, D70E, E81D
B21: 101H9G9A2-hIgG (antibody, V domains shown)
VH: B2 VH with Q5L, T24A, S60Y, R65K, G104A
VL: B2 VL with S22R, I54L, S58R, T69I, L110V
B22: 107D10D11-hIgG (antibody, V domains shown)
VH: QIQLKQSGPGLVQPSQSLSITCTVSGFSLSSYGVNWVRQSPGKGLEWLGMIWSGGNTDYNAAFISRVSFTKDNSKSQVFFTMNSLQADDTAIYYCARIWYYGMDYWGQGTSVTVSS
VL: DIVMTQSQKFMSTTVGDRVSITCKASQNVGTAVAWFQQKPGQSPKILIYSASIRYPGVPDRFTGSGSGTDFTLTTSNVQSEDLADYFCLQYITFPRTFGGGTKLYIK
B23: ch110D4G4-hIgG4 (antibody, V domains shown)
VH: B8 VH
VL: B7 VL with N30S, H49Y, R66G, T69S, N77S, I96L
B24: 81A1F8-hIgG1 (antibody, V domains shown)
VH: B7 VH
VL: B7 VL
B25: 107D10D11 (antibody, V domains shown)
VH: B22 VH
VL: B22 VL

Biological target: T1, human CD24 (human, UniProt P25063 27-59, heavily glycosylated, GPI-anchored (as described in the background))
T1 chain: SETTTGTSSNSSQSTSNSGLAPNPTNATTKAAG
Experiment: FACS binding; Nalm6 cells

In order of rising EC50:
1. B3  2.55 nM
2. B2  7.84 nM
3. B7  11.4 nM
4. B1  21.5 nM
5. B8  24.6 nM
6. B5  24.9 nM
7. B6  29.2 nM
8. B4  70.6 nM
9. B9  108 nM

Biological target: T2, Human CD24-mFc (human, UniProt P25063 27-59)
T2 chain: T1 chain
Experiment: BLI (Gatorprime)

In order of falling Kd:
1. B16  21600 nM
2. B19  1.11 nM
3. B14  0.712 nM
4. B13  0.619 nM
5. B20  0.525 nM
6. B18  0.247 nM
7. B10  0.241 nM
8. B17  0.139 nM
9. B15  0.0819 nM
10. B11  0.0204 nM
11. B12  0.0158 nM

Biological target: T1, human CD24
Experiment: FACS binding; MCF7 cells

In order of rising EC50:
1. B22  2.19 nM
2. B21  2.2 nM
3. B10  4.09 nM

Biological target: T2, Human CD24-mFc
Experiment: SPR (BIAcore); hIgG4

For B10, the Kd was 2.23 nM.

Biological target: T1, human CD24
Experiment: FACS binding; DoHH2 cells

In order of rising EC50:
1. B3  0.218 nM
2. B8  0.61 nM
3. B7  0.819 nM
4. B1  5.08 nM

Biological target: T1, human CD24
Experiment: FACS binding; Huh7 cells

In order of rising EC50:
1. B21  0.815 nM
2. B22  1.39 nM
3. B23  1.72 nM

Biological target: T2, Human CD24-mFc
Experiment: SPR (BIAcore); hIgG1

B24 was tested, and the Kd was 2.29 nM.

Biological target: T2, Human CD24-mFc
Experiment: SPR (BIAcore)

In order of falling Kd:
1. B1  3.08 nM
2. B3  1.24 nM
3. B25  0.762 nM
4. B8  0.124 nM
5. B7  0.095 nM

From patent publication US20240052052A1 (published 2024)
